The source of these data is publication PMC5979958 (Scientific Reports, 2018).

Data set [1] deals with MIF/CXCR4-dependent JVM-3 lymphocyte chemotaxis. Description: inhibition of MIF-mediated JVM-3 B cell chemotaxis by RLR-containing peptides. Format: cell-based, human. The conditions noted are these: 16 nM WT-MIF, pre-incubated 30 min, migration 24 h, 3–12 replicates, 2–3 experiments. The protocol:
(§1) Migration assays using the CXCR4-expressing JVM-3 B cell line were performed in a transmigration well as previously described[32] using the following modifications. Briefly, JVM-3 B cells were sub-cultured and transferred to media without FBS. A migration assay was performed using 24-well format Transwell membranes (Sigma-Corning; 5 µm pore size) containing 1 × 10^6 JVM-3 cells in the upper chamber. […] As positive control, 8 nM CXCL12 was used. Wells without chemoattractant served as negative control and were used to normalize migration effects to ‘chemotactic index’ (number of migrated cells in the presence of chemoattractant divided by the number of migrated cells in the absence of the chemoattractant) – as described previously. […] Cells were allowed to migrate for 24 h. After migration, cells in the lower chamber were counted using Countbright absolute counting beads (Invitrogen) using a FACSVerse flow cytometer (BD Biosciences, Heidelberg, Germany).

Data set [2] concerns the molecule itself. Kind of data set: SEC; Superdex 75 in 20 mM sodium phosphate buffer, pH 7.2, after Q sepharose; peaks at approximately 23 and 38 kDa. In general terms: Size exclusion chromatography separates by hydrodynamic size, large species first.
Data set [3] concerns JVM-3 B cells (CXCR4-expressing). Kind of data set: lymphocyte chemotaxis assay, JVM-3 B cells (chemoattractant). Format: cell-based, human. The settings on record: for chemotactic effect compared with another chemoattractant: WT-MIF compared with CXCL12, RLR mutant compared with WT-MIF. The protocol:
JVM-3 cells (ACC-18) are a chronic B cell leukemia cell line and were kindly provided by Prof. M. Hallek, University of Cologne Medical School, Cologne, Germany. JVM-3 were grown in RPMI media with 1% penicillin/streptomycin and 10% fetal bovine serum (Invitrogen-Thermo Fisher Scientific, Karlsruhe, Germany) essentially as described previously. Miscellaneous cell culture reagents also were bought from Invitrogen-Thermo Fisher Scientific and from PAA (Pasching, Austria). LPS content of the purified WT-MIF and RLR mutant proteins was tested by limulus amoebocyte assay (LAL, Lonza, Cologne, Germany) following the manufacturer’s recommendation. All other reagents were obtained from Sigma, Merck, Roth, or Calbiochem, and were of the highest purity degree available.
as §1

Data set [4] is described as follows: size exclusion chromatography, oligomeric state. The settings on record: Superdex 75, 20 mM sodium phosphate, pH 7.2. In kind it is physicochemical.
Description: The mutant protein was eluted from the anion exchange column via salt gradient and subjected to size exclusion chromatography (SEC) for further purification.
Following Q sepharose, the protein was further purified by size exclusion chromatography (SEC, Superdex 75, GE Healthcare) in 20 mM sodium phosphate buffer, pH 7.2, i.e. buffer conditions compatible with MIF bioactivity.
Data set [5] is described as follows: circular dichroism spectroscopy. Format: physicochemical. The conditions noted are these: for aggregation-tendency: far-UV CD at 1, 2.5, and 5 µM, 10 mM sodium phosphate, pH 7.2, 25 °C. As for the experimental part: CD spectroscopy provides a good estimation of the secondary structural profile of a protein and records relative changes in average secondary structural content, e.g. when a mutated protein is compared to its wildtype counterpart.
Far-UV circular dichroism (CD) spectra were recorded in a Jasco 700 CD spectropolarimeter (Jasco Labor- u. Datentechnik GmbH, Groß-Umstadt, Germany). Scans were recorded at 25 °C between 195 and 250 nm as an average of three scans and smoothed to obtain the final data. Spectra were collected at 1.0 nm intervals with a bandwidth of 1 nm in a buffer containing 10 mM sodium phosphate, pH 7.2. […] CD spectra are presented as a plot of mean residue ellipticities. […] Secondary structure fractions were quantitated by the Dichroweb online software webtool by deconvolutions of CD spectra using ContinLL at DichroWeb and the reference spectra set 7[43],[44].

The subject of data set [6] is human CXCR4 expressed in S. cerevisiae. The conditions noted are these: yeast CXCR4 signaling system, in comparison with CXCL12; cited from earlier work. The text has this: To address the contribution of the RLR motif to MIF/CXCR4-specific cell signaling responses, we employed a genetically modified strain of Saccharomyces cerevisiae that replaces the yeast ste2 GPCR with human CXCR4 as previously reported. This cell system eliminates complications from mammalian cells that usually express more than one or all MIF cell surface receptors and is based on agonist-mediated activation of CXCR4 leading to a signaling cascade that results in β-galactosidase expression from the Fus1-lacZ reporter plasmid.

Values joined by “and” are separate entries in the source; they are usually repeats but may differ in a detail not shown here. Equal entries are not always repeated.

For the molecule “ERLRISPDRVYINYY [MIF(86–100), RLR-spanning MIF peptide]”, the “inhibition of WT-MIF-mediated JVM-3 chemotaxis” value in data set [1] (peptide 10 nM and 100 nM) was “trend towards inhibition”; in data set [1] (peptide 1 µM) it was “significant and complete blockade”.
Regarding “YSKLLCGLLAERLRI [MIF(76–90), RLR-spanning MIF peptide]”, the “inhibition of WT-MIF-mediated JVM-3 chemotaxis” value in data set [1] (peptide 10 nM and 100 nM) is listed as “ablated”.

B1: R87A-L88A-R89A-MIF (ligand, human, UniProt P14174 1-115, looked up)
chain: MPMFIVNTNVPRASVPDGFLSELTQQLAQATGKPPQYIAVHVVPDQLMAFGGSSEPCALCSLHSIGKIGGAQNRSYSKLLCGLLAEAAAISPDRVYINYYDMNAANVGWNNSTFA
notes: also called RLR mutant; MIF R87A-L88A-R89A triple mutant; source: E. coli BL21/DE3 (pET11b), purified (Q sepharose anion exchange, Superdex 75 SEC)
As a reminder, the stoichiometry N is the number of molecules, sites or subunits per partner or assembly. Turning to B1, in data set [2], the “stoichiometry N” value was 2 and 3. The “chemotactic activity on JVM-3 B cells” value in data set [3] (RLR mutant 8 nM, 16 nM, 32 nM, p = ns, 24 h, Transwell 5 µm) is “did not exhibit a significant chemotactic activity”. Besides, the “chemotactic activity on JVM-3 lymphocytes” value in data set [3] (RLR mutant 16 nM (optimal concentration of WT-MIF)) is “failed to show any chemotactic activity”; in data set [3] (RLR mutant 32 nM, effect did not reach statistical significance), “slight increase in activity”. The “chemotactic effect compared with another chemoattractant” value in data set [3] is reported as “Impaired chemotactic effect”; in data set [3] (listed as MIF R87A-L88A-R89A triple mutant), “reduced cell migratory response”; in data set [3] (listed as RLR-mutant of MIF), “reduction”. Besides, the “approximate molecular size of SEC peak, first species” value in data set [4] (suggests dimers) is listed as roughly 23 kDa. Also, the “approximate molecular size of SEC peak, second species” value in data set [4] (suggests trimers) is roughly 38 kDa. Besides, the “increase of random coil content vs WT-MIF” value in data set [5] (CD deconvolution by Dichroweb) is “approximately 20%”. The “reduction of α-helix content vs WT-MIF” value in data set [5] (CD deconvolution by Dichroweb) turned out to be 12%. The “reduction of β-strand percentage vs WT-MIF” value in data set [5] (CD deconvolution by Dichroweb) is listed as 7%. In addition, the “decrease in ordered secondary structural content vs WT-MIF” value in data set [5] (CD spectroscopy) is given as 20%. For the same molecule, the aggregation-tendency result in data set [5] is “neither protein showed an aggregation-tendency”.

B2: macrophage migration inhibitory factor (protein, UniProt P14174 2-115, looked up)
Macrophage migration …: PMFIVNTNVPRASVPDGFLSELTQQLAQATGKPPQYIAVHVVPDQLMAFGGSSEPCALCSLHSIGKIGGAQNRSYSKLLCGLLAERLRISPDRVYINYYDMNAANVGWNNSTFA
notes: recombinant human MIF
On to B2, for which the “chemotactic effect compared with another chemoattractant” value in data set [3] was “lower than that of CXCL12”. Besides, the aggregation-tendency entry in data set [5] is on record as “neither protein showed an aggregation-tendency”. Besides, the “type of agonism at CXCR4” value in data set [6] was “partial allosteric agonism”.
